# From patent US20150344570A1 (published 2015)
# T1: FcγRIIb (human, UniProt P31994 43-217)
# T1 construct: extracellular domain; also called FcgRIIb; 2b
# T1 sequence (looked up): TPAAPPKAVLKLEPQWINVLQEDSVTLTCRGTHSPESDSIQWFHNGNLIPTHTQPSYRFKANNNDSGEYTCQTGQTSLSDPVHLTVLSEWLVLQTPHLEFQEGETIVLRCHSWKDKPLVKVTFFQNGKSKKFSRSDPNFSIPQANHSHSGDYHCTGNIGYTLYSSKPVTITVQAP
# Legend:
# FcγRIIIa [1] = target: T2, FcγRIIIa (human, UniProt P08637 17-208); experiment: SPR (Biacore), relative binding
# T2 construct: extracellular domain; also called FcgRIIIa; 3a
# T2 sequence (P08637 17-208): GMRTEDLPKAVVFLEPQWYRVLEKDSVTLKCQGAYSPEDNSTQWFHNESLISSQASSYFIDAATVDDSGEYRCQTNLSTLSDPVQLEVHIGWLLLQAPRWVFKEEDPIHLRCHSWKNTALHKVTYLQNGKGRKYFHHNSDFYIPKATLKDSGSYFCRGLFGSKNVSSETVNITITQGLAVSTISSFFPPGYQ
# FcγRIIb = target: T1, FcγRIIb; experiment: SPR (Biacore), relative binding
# FcγRIIIa [2] = target: T2, FcγRIIIa; experiment: SPR; He/Con_3a divided by He/Con_2b (FcγRIIIa against FcγRIIb)
He/Con_3a (FcγRIIIa [1]),He/Con_2b (FcγRIIb),He_3a/2b (IIIa/IIb) (FcγRIIIa [2]),Binder
34.7 % of GpH7-A5/GpH7-B3/GpL16-k0,57.6 % of GpH7-A5/GpH7-B3/GpL16-k0,0.6 ratio,"GpH7-A5/GpH7-B3 variant V266_04F/GpL16-k0 (antibody, human IgG1, kappa, mutation in the GpH7-B3 chain only; also called He Ab) heavy 1: not shown heavy 2: not shown light: DIVMTQSPLSLPVTPGEPASISCQASESLVHSNRNTYLHWYLQKPGQSPQLLIYKVSNRFSGVPDRFSGSGSGTDFTLKISRVEAEDVGVYYCSQNTHVPPTFGQGTKVEIERTVAAPSVFIFPPSDEQLKSGTASVVCLLNNFYPREAKVQWKVDNALQSGNSQESVTEQDSKDSTYSLSSTLTLSKADYEKHKVYACEVTHQGLSSPVTKSFNRGEC"
114 % of GpH7-A5/GpH7-B3/GpL16-k0,152 % of GpH7-A5/GpH7-B3/GpL16-k0,0.75 ratio,"GpH7-A5/GpH7-B3 variant V266_07I/GpL16-k0 (antibody, human IgG1, kappa, mutation in the GpH7-B3 chain only; also called He Ab) heavy 1: not shown heavy 2: not shown light: DIVMTQSPLSLPVTPGEPASISCQASESLVHSNRNTYLHWYLQKPGQSPQLLIYKVSNRFSGVPDRFSGSGSGTDFTLKISRVEAEDVGVYYCSQNTHVPPTFGQGTKVEIERTVAAPSVFIFPPSDEQLKSGTASVVCLLNNFYPREAKVQWKVDNALQSGNSQESVTEQDSKDSTYSLSSTLTLSKADYEKHKVYACEVTHQGLSSPVTKSFNRGEC"
4.1 % of GpH7-A5/GpH7-B3/GpL16-k0,15.2 % of GpH7-A5/GpH7-B3/GpL16-k0,0.27 ratio,"GpH7-A5/GpH7-B3 variant V266_10E/GpL16-k0 (antibody, human IgG1, kappa, mutation in the GpH7-B3 chain only; also called He Ab) heavy 1: not shown heavy 2: not shown light: DIVMTQSPLSLPVTPGEPASISCQASESLVHSNRNTYLHWYLQKPGQSPQLLIYKVSNRFSGVPDRFSGSGSGTDFTLKISRVEAEDVGVYYCSQNTHVPPTFGQGTKVEIERTVAAPSVFIFPPSDEQLKSGTASVVCLLNNFYPREAKVQWKVDNALQSGNSQESVTEQDSKDSTYSLSSTLTLSKADYEKHKVYACEVTHQGLSSPVTKSFNRGEC"
14.5 % of GpH7-A5/GpH7-B3/GpL16-k0,49.4 % of GpH7-A5/GpH7-B3/GpL16-k0,0.29 ratio,"GpH7-A5/GpH7-B3 variant V266_15Y/GpL16-k0 (antibody, human IgG1, kappa, mutation in the GpH7-B3 chain only; also called He Ab) heavy 1: not shown heavy 2: not shown light: DIVMTQSPLSLPVTPGEPASISCQASESLVHSNRNTYLHWYLQKPGQSPQLLIYKVSNRFSGVPDRFSGSGSGTDFTLKISRVEAEDVGVYYCSQNTHVPPTFGQGTKVEIERTVAAPSVFIFPPSDEQLKSGTASVVCLLNNFYPREAKVQWKVDNALQSGNSQESVTEQDSKDSTYSLSSTLTLSKADYEKHKVYACEVTHQGLSSPVTKSFNRGEC"
39.4 % of GpH7-A5/GpH7-B3/GpL16-k0,82.3 % of GpH7-A5/GpH7-B3/GpL16-k0,0.48 ratio,"GpH7-A5/GpH7-B3 variant V266_14T/GpL16-k0 (antibody, human IgG1, kappa, mutation in the GpH7-B3 chain only; also called He Ab) heavy 1: not shown heavy 2: not shown light: DIVMTQSPLSLPVTPGEPASISCQASESLVHSNRNTYLHWYLQKPGQSPQLLIYKVSNRFSGVPDRFSGSGSGTDFTLKISRVEAEDVGVYYCSQNTHVPPTFGQGTKVEIERTVAAPSVFIFPPSDEQLKSGTASVVCLLNNFYPREAKVQWKVDNALQSGNSQESVTEQDSKDSTYSLSSTLTLSKADYEKHKVYACEVTHQGLSSPVTKSFNRGEC"
85.8 % of GpH7-A5/GpH7-B3/GpL16-k0,251 % of GpH7-A5/GpH7-B3/GpL16-k0,0.34 ratio,"GpH7-A5/GpH7-B3 variant V266_06M/GpL16-k0 (antibody, human IgG1, kappa, mutation in the GpH7-B3 chain only; also called He Ab) heavy 1: not shown heavy 2: not shown light: DIVMTQSPLSLPVTPGEPASISCQASESLVHSNRNTYLHWYLQKPGQSPQLLIYKVSNRFSGVPDRFSGSGSGTDFTLKISRVEAEDVGVYYCSQNTHVPPTFGQGTKVEIERTVAAPSVFIFPPSDEQLKSGTASVVCLLNNFYPREAKVQWKVDNALQSGNSQESVTEQDSKDSTYSLSSTLTLSKADYEKHKVYACEVTHQGLSSPVTKSFNRGEC"
21.3 % of GpH7-A5/GpH7-B3/GpL16-k0,57.2 % of GpH7-A5/GpH7-B3/GpL16-k0,0.37 ratio,"GpH7-A5/GpH7-B3 variant V266_16H/GpL16-k0 (antibody, human IgG1, kappa, mutation in the GpH7-B3 chain only; also called He Ab) heavy 1: not shown heavy 2: not shown light: DIVMTQSPLSLPVTPGEPASISCQASESLVHSNRNTYLHWYLQKPGQSPQLLIYKVSNRFSGVPDRFSGSGSGTDFTLKISRVEAEDVGVYYCSQNTHVPPTFGQGTKVEIERTVAAPSVFIFPPSDEQLKSGTASVVCLLNNFYPREAKVQWKVDNALQSGNSQESVTEQDSKDSTYSLSSTLTLSKADYEKHKVYACEVTHQGLSSPVTKSFNRGEC"
34.7 % of GpH7-A5/GpH7-B3/GpL16-k0,89.2 % of GpH7-A5/GpH7-B3/GpL16-k0,0.39 ratio,"GpH7-A5/GpH7-B3 variant V266_19Q/GpL16-k0 (antibody, human IgG1, kappa, mutation in the GpH7-B3 chain only; also called He Ab) heavy 1: not shown heavy 2: not shown light: DIVMTQSPLSLPVTPGEPASISCQASESLVHSNRNTYLHWYLQKPGQSPQLLIYKVSNRFSGVPDRFSGSGSGTDFTLKISRVEAEDVGVYYCSQNTHVPPTFGQGTKVEIERTVAAPSVFIFPPSDEQLKSGTASVVCLLNNFYPREAKVQWKVDNALQSGNSQESVTEQDSKDSTYSLSSTLTLSKADYEKHKVYACEVTHQGLSSPVTKSFNRGEC"
2.7 % of GpH7-A5/GpH7-B3/GpL16-k0,10.1 % of GpH7-A5/GpH7-B3/GpL16-k0,0.27 ratio,"GpH7-A5/GpH7-B3 variant V266_09D/GpL16-k0 (antibody, human IgG1, kappa, mutation in the GpH7-B3 chain only; also called He Ab) heavy 1: not shown heavy 2: not shown light: DIVMTQSPLSLPVTPGEPASISCQASESLVHSNRNTYLHWYLQKPGQSPQLLIYKVSNRFSGVPDRFSGSGSGTDFTLKISRVEAEDVGVYYCSQNTHVPPTFGQGTKVEIERTVAAPSVFIFPPSDEQLKSGTASVVCLLNNFYPREAKVQWKVDNALQSGNSQESVTEQDSKDSTYSLSSTLTLSKADYEKHKVYACEVTHQGLSSPVTKSFNRGEC"
-0.7 % of GpH7-A5/GpH7-B3/GpL16-k0,1 % of GpH7-A5/GpH7-B3/GpL16-k0,-0.7 ratio,"GpH7-A5/GpH7-B3 variant V266_11K/GpL16-k0 (antibody, human IgG1, kappa, mutation in the GpH7-B3 chain only; also called He Ab) heavy 1: not shown heavy 2: not shown light: DIVMTQSPLSLPVTPGEPASISCQASESLVHSNRNTYLHWYLQKPGQSPQLLIYKVSNRFSGVPDRFSGSGSGTDFTLKISRVEAEDVGVYYCSQNTHVPPTFGQGTKVEIERTVAAPSVFIFPPSDEQLKSGTASVVCLLNNFYPREAKVQWKVDNALQSGNSQESVTEQDSKDSTYSLSSTLTLSKADYEKHKVYACEVTHQGLSSPVTKSFNRGEC"
28.1 % of GpH7-A5/GpH7-B3/GpL16-k0,54.4 % of GpH7-A5/GpH7-B3/GpL16-k0,0.52 ratio,"GpH7-A5/GpH7-B3 variant V266_13S/GpL16-k0 (antibody, human IgG1, kappa, mutation in the GpH7-B3 chain only; also called He Ab) heavy 1: not shown heavy 2: not shown light: DIVMTQSPLSLPVTPGEPASISCQASESLVHSNRNTYLHWYLQKPGQSPQLLIYKVSNRFSGVPDRFSGSGSGTDFTLKISRVEAEDVGVYYCSQNTHVPPTFGQGTKVEIERTVAAPSVFIFPPSDEQLKSGTASVVCLLNNFYPREAKVQWKVDNALQSGNSQESVTEQDSKDSTYSLSSTLTLSKADYEKHKVYACEVTHQGLSSPVTKSFNRGEC"
118 % of GpH7-A5/GpH7-B3/GpL16-k0,236 % of GpH7-A5/GpH7-B3/GpL16-k0,0.5 ratio,"GpH7-A5/GpH7-B3 variant V266_08L/GpL16-k0 (antibody, human IgG1, kappa, mutation in the GpH7-B3 chain only; also called He Ab) heavy 1: not shown heavy 2: not shown light: DIVMTQSPLSLPVTPGEPASISCQASESLVHSNRNTYLHWYLQKPGQSPQLLIYKVSNRFSGVPDRFSGSGSGTDFTLKISRVEAEDVGVYYCSQNTHVPPTFGQGTKVEIERTVAAPSVFIFPPSDEQLKSGTASVVCLLNNFYPREAKVQWKVDNALQSGNSQESVTEQDSKDSTYSLSSTLTLSKADYEKHKVYACEVTHQGLSSPVTKSFNRGEC"
-0.7 % of GpH7-A5/GpH7-B3/GpL16-k0,0.4 % of GpH7-A5/GpH7-B3/GpL16-k0,-1.98 ratio,"GpH7-A5/GpH7-B3 variant V266_05P/GpL16-k0 (antibody, human IgG1, kappa, mutation in the GpH7-B3 chain only; also called He Ab) heavy 1: not shown heavy 2: not shown light: DIVMTQSPLSLPVTPGEPASISCQASESLVHSNRNTYLHWYLQKPGQSPQLLIYKVSNRFSGVPDRFSGSGSGTDFTLKISRVEAEDVGVYYCSQNTHVPPTFGQGTKVEIERTVAAPSVFIFPPSDEQLKSGTASVVCLLNNFYPREAKVQWKVDNALQSGNSQESVTEQDSKDSTYSLSSTLTLSKADYEKHKVYACEVTHQGLSSPVTKSFNRGEC"
30.4 % of GpH7-A5/GpH7-B3/GpL16-k0,69.7 % of GpH7-A5/GpH7-B3/GpL16-k0,0.44 ratio,"GpH7-A5/GpH7-B3 variant V266_18N/GpL16-k0 (antibody, human IgG1, kappa, mutation in the GpH7-B3 chain only; also called He Ab) heavy 1: not shown heavy 2: not shown light: DIVMTQSPLSLPVTPGEPASISCQASESLVHSNRNTYLHWYLQKPGQSPQLLIYKVSNRFSGVPDRFSGSGSGTDFTLKISRVEAEDVGVYYCSQNTHVPPTFGQGTKVEIERTVAAPSVFIFPPSDEQLKSGTASVVCLLNNFYPREAKVQWKVDNALQSGNSQESVTEQDSKDSTYSLSSTLTLSKADYEKHKVYACEVTHQGLSSPVTKSFNRGEC"
